Measured values: article PMC5392571, “A model for the conformational activation of the structurally quiescent metalloprotease ADAMTS13 by von willebrand factor” (The Journal of Biological Chemistry, 2017)

T1: WT MDTCS (ADAMTS13 residues 1–685) (human, UniProt Q76LX8 30-685)
T1 construct: signal peptide in the construct; ADAMTS13, human, residues 1-685 (metalloprotease, disintegrin-like, TSP1, cysteine-rich and spacer domains); In pCEP4; also called truncated ADAMTS13 variant MDTCS; source: HEK293S cells, purified; not shown: His6, C-terminal, kept
T1 sequence (looked up): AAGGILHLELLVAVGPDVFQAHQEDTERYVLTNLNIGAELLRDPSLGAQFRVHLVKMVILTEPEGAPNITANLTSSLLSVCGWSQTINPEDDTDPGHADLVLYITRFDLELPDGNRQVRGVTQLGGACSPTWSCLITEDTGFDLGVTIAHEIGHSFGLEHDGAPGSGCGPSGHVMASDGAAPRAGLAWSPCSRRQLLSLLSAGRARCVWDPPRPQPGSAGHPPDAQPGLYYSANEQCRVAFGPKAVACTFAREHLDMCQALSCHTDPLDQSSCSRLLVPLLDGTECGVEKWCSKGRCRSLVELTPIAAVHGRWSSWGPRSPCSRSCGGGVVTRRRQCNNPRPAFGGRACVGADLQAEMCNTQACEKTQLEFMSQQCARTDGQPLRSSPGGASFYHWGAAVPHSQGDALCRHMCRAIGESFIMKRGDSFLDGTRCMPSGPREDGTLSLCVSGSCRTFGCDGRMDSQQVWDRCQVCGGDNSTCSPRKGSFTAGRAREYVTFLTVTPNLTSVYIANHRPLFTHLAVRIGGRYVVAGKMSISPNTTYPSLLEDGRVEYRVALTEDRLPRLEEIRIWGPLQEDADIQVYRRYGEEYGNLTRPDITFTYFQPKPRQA

B1: CUB2 domain fragment (ADAMTS13 residues 1299–1427) (domain or fragment, human, UniProt Q76LX8 1299-1427, looked up)
chain: CDMQLFGPWGEIVSPSLSPATSNAGGCRLFINVAPHARIAIHALATNMGAGTEGANASYILIRDTHSLRTTAFHGQQVLYWESESSQAEMEFSEGFLKAQASLRGQYWTLQSWVPEMQDPQSWKGKEGT
notes: ADAMTS13, human, residues 1299-1427 (CUB2 domain); Generated by inverse PCR from the full-length ADAMTS13 construct (C-terminal Myc/His6); detected by anti-His6 in the co-IP; also called isolated CUB2 fragment; source: HEK293S cells, purified
B2: CUB1-2 domain fragment (ADAMTS13 residues 1192–1427) (domain or fragment, human, UniProt Q76LX8 1192-1427, looked up)
chain: CGRQHLEPTGTIDMRGPGQADCAVAIGRPLGEVVTLRVLESSLNCSAGDMLLLWGRLTWRKMCRKLLDMTFSSKTNTLVVRQRCGRPGGGVLLRYGSQLAPETFYRECDMQLFGPWGEIVSPSLSPATSNAGGCRLFINVAPHARIAIHALATNMGAGTEGANASYILIRDTHSLRTTAFHGQQVLYWESESSQAEMEFSEGFLKAQASLRGQYWTLQSWVPEMQDPQSWKGKEGT
notes: ADAMTS13, human, residues 1192-1427 (CUB1 and CUB2 domains); Generated by inverse PCR from the full-length ADAMTS13 construct (C-terminal Myc/His6); source: HEK293S cells, purified
B3: CUB1 domain fragment (ADAMTS13 residues 1192–1298) (domain or fragment, human, UniProt Q76LX8 1192-1298, looked up)
chain: CGRQHLEPTGTIDMRGPGQADCAVAIGRPLGEVVTLRVLESSLNCSAGDMLLLWGRLTWRKMCRKLLDMTFSSKTNTLVVRQRCGRPGGGVLLRYGSQLAPETFYRE
notes: ADAMTS13, human, residues 1192-1298 (CUB1 domain); Generated by inverse PCR from the full-length ADAMTS13 construct (C-terminal Myc/His6); detected by anti-His6 in the co-IP; also called isolated CUB1 fragment; source: HEK293S cells, purified

biological target: T2, dimeric VWF D4-CK domain fragment (VWF residues 1874–2813) (UniProt P04275 1874-2813); assay: SPR; BIAcore T100, CM5 chip; ADAMTS13, its truncation variants or CUB fragments immobilised, VWF D4-CK as analyte; 10 mM HEPES, 150 mM NaCl, pH 7.4, 0.0034 mM EDTA, 0.005% Tween 20; global analysis; conditions: both partners purified
T2 construct: von Willebrand factor, residues 1874-2813 (D4 to CK domains); source: HEK293S, transiently expressed, purified by FPLC

Kd [nM]	Binder
84.3	B1
51.8	B2
53.7	B3

biological target: T1, WT MDTCS (ADAMTS13 residues 1–685); assay: SPR; BIAcore T100, CM5 chip; 10 mM HEPES, 150 mM NaCl, pH 7.4, 0.0034 mM EDTA, 0.005% Tween 20; the text says MDTCS variants were immobilised, the legend of Fig. 1 says the CUB fragments were; global analysis; conditions: both partners purified

Kd [nM]	Binder
86.9	B1
55.6	B2
135	B3
